According to article PMC6779467, “Cytoplasmic protein misfolding titrates Hsp70 to activate nuclear Hsf1” (eLife, 2019):

B1: Ssa1 (6xHis-SUMO tag cleaved with Ulp1) (natural protein)
chain: not shown
notes: Hsp70 Ssa1, S. cerevisiae; Same construct as m2 after cleavage of the tag with Ulp1 SUMO protease; also called Hsp70; Hsp70 Ssa1; source: E. coli BL21-SI/pCodonPlus with pCA1026, coexpressed with Hsf1-StrepTag II and Sis1; purified (Ni-IDA, Ulp1 cleavage, Strep-Tactin Sepharose through Hsf1); not shown: 6xHis-SUMO, N-terminal, cleaved
B2: Hsf1-StrepTag II (natural protein, S. cerevisiae, UniProt P10961 1-833, looked up)
chain: MNNAANTGTTNESNVSDAPRIEPLPSLNDDDIEKILQPNDIFTTDRTDASTTSSTAIEDIINPSLDPQSAASPVPSSSFFHDSRKPSTSTHLVRRGTPLGIYQTNLYGHNSRENTNPNSTLLSSKLLAHPPVPYGQNPDLLQHAVYRAQPSSGTTNAQPRQTTRRYQSHKSRPAFVNKLWSMLNDDSNTKLIQWAEDGKSFIVTNREEFVHQILPKYFKHSNFASFVRQLNMYGWHKVQDVKSGSIQSSSDDKWQFENENFIRGREDLLEKIIRQKGSSNNHNSPSGNGNPANGSNIPLDNAAGSNNSNNNISSSNSFFNNGHLLQGKTLRLMNEANLGDKNDVTAILGELEQIKYNQIAISKDLLRINKDNELLWQENMMARERHRTQQQALEKMFRFLTSIVPHLDPKMIMDGLGDPKVNNEKLNSANNIGLNRDNTGTIDELKSNDSFINDDRNSFTNATTNARNNMSPNNDDNSIDTASTNTTNRKKNIDENIKNNNDIINDIIFNTNLANNLSNYNSNNNAGSPIRPYKQRYLLKNRANSSTSSENPSLTPFDIESNNDRKISEIPFDDEEEEETDFRPFTSRDPNNQTSENTFDPNRFTMLSDDDLKKDSHTNDNKHNESDLFWDNVHRNIDEQDARLQNLENMVHILSPGYPNKSFNNKTSSTNTNSNMESAVNVNSPGFNLQDYLTGESNSPNSVHSVPSNGSGSTPLPMPNDNDTEHASTSVNQGENGSGLTPFLTVDDHTLNDNNTSEGSTRVSPDIKFSATENTKVSDNLPSFNDHSYSTQADTAPENAKKRFVEEIPEPAIVEIQDPTEYNDHRLPKRAKK
notes: Hsf1, S. cerevisiae; HSF1 amplified with primers from the start codon to the last codon before the tag; also called Heat shock factor 1; yeast Hsf1; source: E. coli BL21-SI/pCodonPlus with pCA1026, coexpressed with 6xHis-SUMO-Ssa1 and Sis1; purified (Ni-IDA, Strep-Tactin Sepharose); not shown: Strep Tag II, C-terminal, kept

How the values were obtained:
Hsf1-StrepTag II = biological target: B2; assay: pull-down; coexpression in E. coli; tandem affinity purification: Ni-IDA (6xHis-SUMO on Ssa1), Ulp1 cleavage, Strep-Tactin Sepharose (StrepTag II on Hsf1), elution with desthiobiotin; LWB150 (40 mM HEPES-KOH pH 7.5, 150 mM NaCl, 5 mM MgCl2, 5% glycerol); stoichiometry by densitometry of a Coomassie stained gel; conditions: partners not purified
[1] = biological target: the molecule itself; assay: SEC; 500 ul of 2 mg/ml purified complex on HiLoad 16/600 Superdex200 pg, 1 mL/min, LWB150

| Binder | stoichiometry N (Hsf1-StrepTag II) | binding result [1] |
| --- | --- | --- |
| B1 | 3 Hsf1 per Ssa1 | – |
| B2 | – | binds |
